Targets include HLA-A*02:01; HLA-A*02:02; HLA-A*02:03; HLA-A*02:06; HLA-A*68:02.
Common to all, as to assay: IEDB peptide-MHC binding, purified MHC/competitive/radioactivity; ≥ and ≤ were set here for values at or beyond the usual limits of such assays
Where [1] appears, read: source organism: Vaccinia virus WR.
[2] abbreviates: source organism: Influenza A virus.
[3] abbreviates: source organism: Mammarenavirus lassaense.
Setting [4] is: source organism: Hepacivirus hominis.

By IC50 is commonly meant the concentration at which inhibition is half-maximal.

For the sequence SAFNDDGIYI, the IC50 with HLA-A*02:01 (setting [1]) turned out to be 35 nM; with HLA-A*02:02 (setting [1]), 35 nM; with HLA-A*02:03 (setting [1]), 68 nM; with HLA-A*02:06 (setting [1]) it was 41 nM; with HLA-A*68:02 (setting [1]), 6.6 nM.
With SCINRCFYV, the IC50 with HLA-A*02:01 (setting [2]) is 295 nM; with HLA-A*02:02 (setting [2]), 808 nM; with HLA-A*02:03 (setting [2]), 947 nM; with HLA-A*02:06 (setting [2]) it was 226 nM; with HLA-A*68:02 (setting [2]) it was 1080 nM.
Regarding SCLENFRAYV, the half-inhibitory concentration (IC50) in the assay with HLA-A*02:01 (setting [2]) stood at 20 nM; in the assay with HLA-A*02:02 (setting [2]) it was 90 nM; in the assay with HLA-A*02:03 (setting [2]), 55 nM; in the assay with HLA-A*02:06 (setting [2]), 162 nM; with HLA-A*68:02 (setting [2]) it was 224 nM.
As to SIDHCSSFI, the IC50 was found to be 246 nM with HLA-A*02:01 (setting [1]); 631 nM with HLA-A*02:02 (setting [1]); 13 nM in the assay with HLA-A*02:03 (setting [1]); 199 nM with HLA-A*02:06 (setting [1]); 27 nM with HLA-A*68:02 (setting [1]).
Regarding SIDHCSSFIV, the IC50 with HLA-A*02:01 (setting [1]) worked out at 23 nM; with HLA-A*02:02 (setting [1]), 172 nM; with HLA-A*02:03 (setting [1]), 772 nM; in the assay with HLA-A*02:06 (setting [1]) it was 30 nM; with HLA-A*68:02 (setting [1]), 732 nM.
For the sequence SIFVSTMPV, the IC50 with HLA-A*02:01 (setting [1]) stood at 40 nM; with HLA-A*02:02 (setting [1]) it was 37 nM; with HLA-A*02:03 (setting [1]), 6.6 nM; in the assay with HLA-A*02:06 (setting [1]), 82 nM; in the assay with HLA-A*68:02 (setting [1]) it was 10 nM.
On to SIINHKFCNL, for which the IC50 with HLA-A*02:01 (setting [3]) came out at 2120 nM; in the assay with HLA-A*02:02 (setting [3]) it was 247 nM; in the assay with HLA-A*02:03 (setting [3]) it was 562 nM; with HLA-A*02:06 (setting [3]), 1020 nM; with HLA-A*68:02 (setting [3]), 920 nM.
In the case of SIISLFYTFA, the IC50 with HLA-A*02:01 (setting [1]) came out at 205 nM; with HLA-A*02:02 (setting [1]), 111 nM; with HLA-A*02:03 (setting [1]) it was 28 nM; with HLA-A*02:06 (setting [1]), 94 nM; in the assay with HLA-A*68:02 (setting [1]), 51 nM.
SIPISELSRL: the IC50 in the assay with HLA-A*02:01 (setting [1]) came to 2260 nM; with HLA-A*02:02 (setting [1]), 252 nM; with HLA-A*02:03 (setting [1]), 61 nM; in the assay with HLA-A*02:06 (setting [1]), 78 nM; with HLA-A*68:02 (setting [1]), 422 nM.
Take SISEINEWL: the IC50 with HLA-A*02:01 (setting [1]) is 1.9 nM; in the assay with HLA-A*02:02 (setting [1]) it was 0.13 nM; with HLA-A*02:03 (setting [1]), 1.8 nM; with HLA-A*02:06 (setting [1]), 6.3 nM; in the assay with HLA-A*68:02 (setting [1]), 1.3 nM.
As to SISGVLWTV, the IC50 with HLA-A*02:01 (setting [4]) turned out to be 11 nM; with HLA-A*02:02 (setting [4]), 8.8 nM; with HLA-A*02:03 (setting [4]) it was 18 nM; with HLA-A*02:06 (setting [4]), 53 nM; with HLA-A*68:02 (setting [4]) it was 5.5 nM.
For the sequence SISSVLTIL, the IC50 in the assay with HLA-A*02:01 (setting [1]) came to 26 nM; with HLA-A*02:02 (setting [1]), 1.2 nM; with HLA-A*02:03 (setting [1]), 4 nM; with HLA-A*02:06 (setting [1]) it was 110 nM; in the assay with HLA-A*68:02 (setting [1]), 16 nM.
The like results for SIVCIVAAV were, in that order, 5.3 nM, 3.9 nM, 2.8 nM, 3.5 nM and 0.55 nM.
SIYIAVANCV: the IC50 was determined as 1460 nM with HLA-A*02:01 (setting [1]); 534 nM with HLA-A*02:02 (setting [1]); 63 nM in the assay with HLA-A*02:03 (setting [1]); 1000 nM in the assay with HLA-A*02:06 (setting [1]); 306 nM in the assay with HLA-A*68:02 (setting [1]).
Regarding SLCSCICTV, the IC50 is 3.2 nM in the assay with HLA-A*02:01 (source organism: SARS-CoV1); 4 nM in the assay with HLA-A*02:02 (source organism: SARS-CoV1); 4.2 nM with HLA-A*02:03 (source organism: SARS-CoV1); 5.8 nM with HLA-A*02:06 (source organism: SARS-CoV1); 1670 nM with HLA-A*68:02 (source organism: SARS-CoV1).
With SLEATFIDV, the IC50 worked out at 182 nM with HLA-A*02:01 (setting [1]); 35 nM with HLA-A*02:02 (setting [1]); 80 nM in the assay with HLA-A*02:03 (setting [1]); 10 nM with HLA-A*02:06 (setting [1]); 23 nM with HLA-A*68:02 (setting [1]).
SLMAFTASI: the IC50 was found to be 106 nM with HLA-A*02:01 (setting [4]); 19 nM with HLA-A*02:02 (setting [4]); 40 nM in the assay with HLA-A*02:03 (setting [4]); 743 nM with HLA-A*02:06 (setting [4]); 284 nM with HLA-A*68:02 (setting [4]).
Regarding SLPSYAAYA, the IC50 in the assay with HLA-A*02:01 (source organism: SARS-CoV1) was 3.9 nM; with HLA-A*02:02 (source organism: SARS-CoV1), 6.7 nM; with HLA-A*02:03 (source organism: SARS-CoV1), 2.6 nM; with HLA-A*02:06 (source organism: SARS-CoV1) it was 8.7 nM; in the assay with HLA-A*68:02 (source organism: SARS-CoV1) it was 334 nM.
On to SLSNLDFRL, for which the IC50 in the assay with HLA-A*02:01 (setting [1]) was 2880 nM; with HLA-A*02:02 (setting [1]) it was 1310 nM; with HLA-A*02:03 (setting [1]) it was 1760 nM; in the assay with HLA-A*02:06 (setting [1]), 1380 nM; with HLA-A*68:02 (setting [1]), 23 nM.
The like results for SLTTIGTIA were, in that order, 133 nM, 1 nM, 3.7 nM, 489 nM and 323 nM.
The corresponding values for SLVITYCLV are 174 nM, 1690 nM, 201 nM, 270 nM and 1400 nM.
Turning to SLVITYCLVT, the IC50 with HLA-A*02:01 (setting [1]) turned out to be 373 nM; with HLA-A*02:02 (setting [1]), 286 nM; with HLA-A*02:03 (setting [1]), 566 nM; with HLA-A*02:06 (setting [1]) it was 824 nM; with HLA-A*68:02 (setting [1]) it was 447 nM.
In the case of SLVKPTVYV, the IC50 worked out at 106 nM in the assay with HLA-A*02:01 (source organism: SARS-CoV1); 108 nM in the assay with HLA-A*02:02 (source organism: SARS-CoV1); 37 nM with HLA-A*02:03 (source organism: SARS-CoV1); 473 nM in the assay with HLA-A*02:06 (source organism: SARS-CoV1); 145 nM in the assay with HLA-A*68:02 (source organism: SARS-CoV1).
Turning to SLVSKHWEL, the IC50 with HLA-A*02:01 (setting [1]) came to 2.7 nM; with HLA-A*02:02 (setting [1]), 1.2 nM; with HLA-A*02:03 (setting [1]), 36 nM; in the assay with HLA-A*02:06 (setting [1]), 35 nM; with HLA-A*68:02 (setting [1]), 378 nM.

For the origin of these results see the Immune Epitope Database (IEDB).
